The DeepSol protein solubility set

assay: soluble on expression in E. coli; label from the status in PepcDB or PDB records

Sequence	soluble on expression in E. coli
KVQSTFAKYSRVRSMTGMTGAEAAKRLLNSQGIYDVQVRKVAGNLTDHYDPRNKTLNLSESVYDSPSVAAIGVAAHECGHAIQDNTEYAPLKIRGAIVPVVNIGTQLSWPM	not soluble
TKDLPIHACSYCGIHDPACVVYCNTSKKWFCNGRGNTSGSHIVNHLVRAKCKEVTLHKDGPLGETVLECYNCGCRNVFLLGFIPAKADSVVVLLCRQPCASQSSLKDINWDSSQWQPLIQDRCFLSWLVKIPSEQEQLRARQITAQQINKLEELWKENPSATLEDLEKPGVDEEPQHVLLRYEDAYQYQNIFGPLVKLEADYDKKLKESQTQDNITVRWDLGLNKKRIAYFTLPKTDSDMRLMQGDEICLRYKGDLAPLWKGIGHVIKVPDNYGDEIAIELRSSVGAPVEVTHNFQVDFVWKSTSFDRMQSALKTFAVDETSVSGYIYHKLLGHEVEDVIIKCQLPKRFTAQGLPDLNHSQVYAVKTVLQRPLSLIQGPPGTGKTVTSATIVYHLARQGNGPVLVCAPSNIAVDQLTEKIHQTGLKVVRLCAKSREAIDSPVSFLALHNQIRNMDSMPELQKLQQLKDETGELSSADEKRYRALKRTAERELLMNADVICCTCVGAGDPRLAKMQFRSILIDESTQATEPECMVPVVLGAKQLILVGDHCQLGPVVMCKKAAKAGLSQSLFERLVVLGIRPIRLQVQYRMHPALSAFPSNIFYEGSLQNGVTAADRVKKGFDFQWPQPDKPMFFYVTQGQEEIASSGTSYLNRTEAANVEKITTKLLKAGAKPDQIGIITPYEGQRSYLVQYMQFSGSLHTKLYQEVEIASVDAFQGREKDFIILSCVRANEHQGIGFLNDPRRLNVALTRARYGVIIVGNPKALSKQPLWNHLLNYYKEQKVLVEGPLNNLRESLMQFS	soluble
MGSDKIHHHHHHMPRQLPPLYALRAFEAAARLSSFTRAGEELSITQSAISRHIRTLEEHFACRLFVRSGRSLQLTEAGRVLLPGVREGFAAFERACETLCGEDDILRMKAPSTLTMRWLLACLSRFRHLQPGNEVQLTSAWMDVDHVDFNQEPFDCAVLLSDGVFPPEWEVRKLFPELLIPVGAPDLLDEEPWDVCRLASVELLHPTVDKRDWREWLERMGLGDQVSLKGGQVFDTLELGMIAAARGYGISMGDLLMVAEDVAQKRLSLPWPTAVPSGMDYYLVWPRTRRGGERLRRLSAFLEGEVAAMDLPDVEILPRL	not soluble
MGSDKIHHHHHHMPYNATVLRIMIASPSDVAKERNIIRNIIYEWNTINSIDRKIVLDPVGWETHAHPDMSGRAQSIINKQILKDCDLLVAVFWTRLGTPTGKFISGTVEEIEEHLKSGKQAMIYFSRAPVYLESVDQDQYKALCDFRSLCQQKGLIETYESLEEFQHKFSRQISQKIIQNYSSLESTNNTLEVSFAPELPRLSDLGKDLLIEVASDSNGELICLPVMGGLMIETNNKQLADMGNARSEASWKSAISELIKYELMESLGGKGEVYRLTEKGYQVADHLGAP	not soluble
RLLKVPVFVHESDLSMGLANKIAYKFATIMYTTFEQSKDLIKTKHIGAVTKVMDCKKSFENTDLTSIKEAFDPNLKTLLFIGGSAGAKVFN	not soluble
MGSDKIHHHHHHMDAPALPARWKVSAPELIAETFSSRIWKVVRDDGSPAVVKALKPFDDVADELRGEHFLAWRRGEGAVRLLGRDGHSMLLEYAGETLLTQVLDEQGDNAATAIAAELMTKLFSPSQHPYPPELQPLTERYTSLFRKAATDRGAGHASIYVEAAAIAERLLDNPHDIRPLHGDLHHDNILHGPRGWLVIDPKGVLGNPGFDAANMFYNPLDRDDLCLDPERIAHMAEVFAKTLGESPAAILDHAIAYGCLSAAWHHEDDNAVEENRELSIAKAIRAMRANF	not soluble
MIFYLLPSEKKQSTMDLVKEDYFSIWENREKNRFPELNPYRKELIEYFKVETKPLAPAWRRYNGKFWDSLEFWCLPPEVQQNIIDRGIIISPLFGMLGVNDPIPRYSVTFQDKYKGKKLTEFWKEVLKDISKKMFESSVIFDFLTTEQRETLTFPEDVTFVRFDYIRKGKKVVNPMPHRAYTLRYIVEKNVDLNSLEKINFYDYKVSKIEKEGNVIRVIMESEGRYI	not soluble
MKQFGLAAFDELKDGKYNDVNKTILEKQSVELRDQLMVFQERLVEFAKKHNSELQASPEFRSKFMHMCSSIGIDPLSLFDRDKHLFTVNDFYYEVCLKVIEICRQTKDMNGGVISFQELEKVHFRKLNVGLDDLEKSIDMLKSLECFEIFQIRGKKFLRSVPNELTSDQTKILEICSILGYSSISLLKANLGWEAVRSKSALDEMVANGLLWIDYQGGAEALYWDPSWITRQL	soluble
MRARGRLLPRLLRTNIQSSRFLVSLGHTNDVMSSHLCSLCHLDHHPHPTPPSSSSSSSSLSLCAWLSCVCVCVCVYMHTTYHTGLSTYQCSILQPPPSPSLSTHTFLCVYCVLAPSSPPCIMVDTSSSAPASASPAITTSAAATTPVVILVVGMAGTGKTTLVHRMQHYAHTNGIRSYFINLDPAVTHTPYNVNIDIRDSVRYGEVMKNYRLGPNGAIMTSLNLFATKIHQVVSLLEKKEEMLDWIIVDTPGQIEVFTWSASGQLMADSFGAVFPTVLLFVADTVRCVSSPQTFVSTMLYSSGIMLKQQVPLVVVFNKTDVVSADSVIAWMRDNDALDEAVTNPHRSNRSRRAVSGEPGDGEDADWRGEGTRIGAAALGSQDALLANQGSGYAGTLAQSMSLFLHEFYEDLPYAAVSAASGAGMSELAASIERGKQQALEAKAERSAH	not soluble
SLRVYIYEYAVATGDEEFLAEGRAMLESLLRAFAKSGYETLTVAHPSVGVRWADEVLRDETQALECADLTLVIAPESDGLLESKVREYSRETEVIGPTPRAIRVAADKRKTEDALRDARSFQLPTREADVMVSKPADGAGSEGVRIGRGELSRELIPGSHHSLLCVSDGETVDVLGINDQFVAFAGRELVYLGGRTPSDHRELTRIARDIAEEVVERIPGLVGLFGVDLVMKGGEPYLIEVNPRPTTPTVAAALEHPEAVVRSLLEGPTGKVLRYRREYVYVKRGAEALVPEKFEVVEDFHGLRVYRG	soluble
MATVLIVGRPNVGKSTLFNKLVKKKKAIVEDEEGVTRDPVQDTVEWYGKTFKLVDTCGVFDNPQDIISQKMKEVTLNMIREADLVLFVVDGKRGITKEDESLADFLRKSTVDTILVANKAENLREFEREVKPELYSLGFGEPIPVSAEHNINLDTMLETIIKKLEEKGLDLESKPEITDAIKVAIVGRPNVGKSTLFNAILNKERALVSPIPGTTRDPVDDEVFIDGRKYVFVDTAGLRRKSRVEPRTVEKYSNYRVVDSIEKADVVVIVLDATQGITRQDQRMAGLMERRGRASVVVFNKWDLVVHREKRYDEFTKLFREKLYFIDYSPLIFTSADKGWNIDRMIDAMNLAYASYTTKVPSSAINSALQKVLAFTNLPRGLKIFFGVQVDIKPPTFLFFVNSIEKVKNPQKIFLRKLIRDYVFPFEGSPIFLKFKRSR	soluble
MQFYQPPAQQHLARSTPPPNFAQPYGMGMRPHEEETRQIMNLDSQQTHSSSPTSSWNQPYGQMSNPYQQRGPSLYAPPGPPVMHQNGPPGVVPTSNPYYQPPVPPQHHHMQPQAPMMSPGMHGQQQQQPYYNTQSPLTGTPPSMSYGTPQIPAPPPTSNGSAPMFNFSKPRNSNEGSLTNGGGGAAHRRKKHNDLSSPRYSSNSNEDVDGSVFPDMADFPLLDVVQSKAKKDAGRKPCRPHLCEQSRMLISRVCHFHREFIKRLPARHPLVNSPFSKPDQWTSQIMGISLATVRKCIDMAVDEEVFTRCTDKNLVNLTPSERAEREELLSKLSTVFEDEKSLGAGTAGMTIAEYSPRRSYSNTLLRQSTDDKSSTSSYNANGGEYGGSTETTLLNLDDHSNSSKDYGMTPTTPAAPVASSVTSDLGGGGGQVFEEIGAIGGGMSTESSLDDKSAVKIPKRGRPCKAPGTTATNKSTKRKESQDGGQEVGGPVEDKDDHEKKTEDEDETNEETEKIEVQQADQAEREDDAASSEGTNRSETATPELATDTTAVAKKTRSAAARRKNTKTVDDEFAGATKKKRGSVTAATAGIGGDDENSDHKMVTRARSRQP	not soluble
MGCFFSKRRKADKESRPENEEERPKQYSWDQREKVDPKDYMFSGLKDETVGRLPGTVAGQQFLIQDCENCNIYIFDHSATVTIDDCTNCIIFLGPVKGSVFFRNCRDCKCTLACQQFRVRDCRKLEVFLCCATQPIIESSSNIKFGCFQWYYPELAFQFKDAGLSIFDNTWSNIHDFTPVSGELNWSLLPEDAVVQDYVPIPTTEELKAVRVSTEANRSIVPISRGQRQKSSDESCLVVLFAGDYTIANARKLIDEMVGKGFFLVQTKEVSMKAEDAQRVFREKAPDFLPLLNKGPVIALEFNGDGAVEVCQLIVNEIFNGTKMFVSESKETASGDVDSFYNFADIQMGILEHHHHHH	soluble
MGVSLSKGGNVSLTKEAPGLTAVIVGLGWDVRTTTGTDFDLDASALLTNVEGKVANDQNFVFFNNLKSPDGSVEHTGDNITGEGEGDDEQIKVDLATVPADVDKIVFPVSIYDAENRQQSFGQVRNAFIRVVNQAGGAEIARYDLSEDASTETAMVFGELYRNGPEWKFRAIGQGYASGLRGIAQDFGVNV	not soluble
MDPELLRQRTAFQKHAATTMAVQNKPTTAPNSHTTYSSEAAKAKKKKSSGPAQNLSKLPDFNNSVSNANALSNATNFSTMAKIVDYMKKRHLNNQQWPLTLQEILDELQIFDLSKRSLAFLQEALPNNPRLIMESEKFAFRPPYKIKGKTSLVAVARKHYQDGKGGILVSDLAECVANYDALLQQVSSEVIVVPTQVNKKKDRVVFYNDKEFTFPELEDDFKALWRHVSVDHLDEKKIEEYLQKKGLDAMKDLTPKVRMQAPLKRKAAKRRFNQKVQNEHMDGVLEDYE	soluble
MGAQGSRVDFKQVVLDVTSKPGKDDETFWDQAWWPDSVNEIFAMISGEDIRKLRDESPKNLATLVYKTVEKLQFSRNHPATIDQKKTINAIRLLTRIVPYLLEDAEWRGYFWSPIPHGDAAKPLAAVLLETLSDLLFCPEFTITHANGQKIDDLSTIDSCEYIWEAGVGSGNKPPMVALHYQNRTEILKLLLTCFAELIYAPVSDETRLRWVIHFTSVTNPHVLPIFTSLLNIVCAYDPVGYGLPYNYLLFNDSREPLVEIALQVLIVCLDKETQPNTDDSGYKDNYFINYLSRIHREEDFDFMLKGITRLLSNPIHSSSSYLPNSTKRVNFHQELLVLLWKCCEINQKFMFYVLKTSDVLDILVPILYHISDARNDSGRVGLIHMGVFIILLLSGERNFGVRLNKPYTAKANINVQTFTGTHADLLILVIHKLITTGNYRLQTLFDCFLTIMVNVSPYMKSLSMVAANKLVHLVEAFSTPWFLFSSPTNPQLVFSLLEVFNNVIQYQFDGNSNLIYTIIRKRNVFYQLSNLSTDAASIAKTLSGRKSKSANRDEMVDQLKSPTSTAPPEIPAADAPAAQTLGGVSTTTGLAATPALASMTGNVGNWEERPESSQDNEWIATQEWADAWKSKLPLQTIMRLLQVLVPQVEKICIDKGLTDESEILKFLQHGTLVGLLPVPHPIVIRRYQTNIGTNHWFRIYMWGVIYLKHTQPPIWYDTDVKLFEVQRA	not soluble
MGSDKIHHHHHHACSSDDDNTVNDETTPPEEEAVVTAPDVVGTYWGNLDISMLPDGSDQEVVIADGLPKFITFSQVSDTEVKMELKEFELFINGNILKFGDIVIDKCAVKKETDASTFTGQQDLTFQGDAAALGTCATSIEGTVQSGNATMNIQVKVPALKQTVKVAFSGVKQVEESGKD	not soluble
MSLTNDERILSWNETPSKPRYTPPPGAIDAHCHVFGPMAQFPFSPKAKYLPRDAGPDMLFALRDHLGFARNVIVQASCHGTDNAATLDAIARAQGKARGIAVVDPAIDEAELAALHEGGMRGIRFNFLKRLVDDAPKDKFLEVAGRLPAGWHVVIYFEADILEELRPFMDAIPVPIVIDHMGRPDVRQGPDGADMKAFRRLLDSREDIWFKATCPDRLDPAGPPWDDFARSVAPLVADYADRVIWGTDWPHPNMQDAIPDDGLVVDMIPRIAPTPELQHKMLVTNPMRLYWSEEMEGHHHHHH	soluble
